Assay: coupled assay of 5-hydroxyvalerate CoA transferase and thiolase, LC-MS detection of acyl-CoAs
Type: biochemical
Settings: 1 mM acetyl-CoA, 1 mM 5-hydroxyvalerate, pH 6.8, 30° C.; no analytical standards, ions of expected molecular weight
Description: For each culture, expression plasmids were freshly transformed into BL21(DE3) (Agilent). Colonies from fresh agar plates were used to inoculate 20 ml LB in 250 ml flask overnight pre-culture. For all constructs except 237, ampicillin was used, for 237 kanamycin was required. After incubation overnight at 37° C. and 200 rpm, pre-cultures were used to inoculate (1:100) larger cultures, 350 ml LB, with respective antibiotic in […]. After 2.5 h of shaking with 200 rpm at 37° C., cultures reached OD600 in the range 0.5-0.7 at which point they were induced with 1 mM IPTG and the temperature of the culture was changed to 25° C. Incubation continued overnight. Cells were harvested the next day and stored at −20° C. until protein purification was performed.
To purify an overexpressed protein, a bacterial pellet from a 350 ml culture was resuspended in up to total 20 ml of Binding Buffer (20 mM Sodium phosphate pH 7.4, 500 mM Sodium chloride, 20 mM imidazole, 5% glycerol) and sonicated for 2 min with a microtip (amplitude 50%, 1 s pulse ON, 2 s OFF). Cell suspension was centrifuged with 20,000 G for 30 min at 4° C. As all the tested proteins were His-tagged, the purification with Immobilized Metal Affinity Chromatography was sufficient to ensure both necessary purity and amount for the enzymatic assays. […]

B1: BDIGENE #246: Clostridium viride 5-hydroxyvalerate CoA transferase (protein)
chain: MAQFVTAQEAVKHIPNGSRVVLAHSTGEPRTLVKAMVENYEQYKDVEVCHMLGLGPYEYTNPEMKGHLWHNSLFMGPGGRKAFNENRLDFTPGYFCDSIKFFREGYLPVDVLMMTVSPPDKHGYVTCGITCDFTMPAFECAKMVIVQVNKNMPRTFGQTAIHLDDIDFAVEADDPLYGSVPGELTDIDRKIGEHCASLINDGACLQLGIGGIPNAVLTYLTEKNDMGIHSEMLSDGILQLIKAGNINNSKKQIHVGKSAVTFLNGSQELYDYVDDNPSVEFYPVDYINDPYVIGKNDNMVSVNSALSVDLMGQIVADNLSATRQISGAGGFVDFVRGATISKGGISIVAMPSTAAGGKASRIEMMFDAGRPITLTRFESFYVVTEYGIAKMRGNSLRTRARQLIEIAHPDFRDEMKEFYEKRFGEKY
modifications: Clostridium viride
notes: Clostridium viride 5-hydroxyvalerate CoA transferase
  intermediate product 5-hydroxyvaleryl-CoA by LC-MS: detected in all samples containing both substrates and BDIGENE #246

— patent US10920254B2, “Methods and materials for producing 5 and 7-carbon monomers” (INVISTA North America S.á.r.l., priority 2015, dated 2021)
